Measurements: the DeepSol protein solubility set

test: soluble on expression in E. coli; label from the status in PepcDB or PDB records

Sequence	soluble on expression in E. coli
MDMEVDEAISGTSSSRLAPIEEVKPTPKQIKRIAAHSHVKGLGIDTETQEAHYEAAGFVGQAPARTAASIVVDMIRLKCMAGRAVLIAGPPATGKTAIALAMSQELGDGVPFVPLVASEVFSNEVKKTEVLMRSFRRAIGLRVKETKDVYEGEVTELSPVEASDNSGMGKTISHLVLSLKTAKGSKQLKLDPSIYDSILKQRVEVGDVIYIEANSGIVKRVGRCDVYASEFDLEADEFVPMPKGDVRKSKDIVQNVSLHDLDIANARPQGRQGDVSNIVSQLMTPKKTEVTDRLRSEINKVVNEYIESGVAELMPGVLFIDEVHMLDVECFTYLYRALESPMAPVVVFATNRGTTTVRGLGDKAPHGIPPEMLDRLMIIPTMKYNEEDIRKILVHRTEAENVQFEEKAFDLLTRLCAQTCGREVIEVEDVDRCTKLFMDRGESLKKAEEEMRQPKNKK	not soluble
MSSAPLPPKPIERGYASAGLLARILVSKYMEHIPLYRQSEIYARQGVELSRNTMVRWVSEMADKLRPLYIALNDYVLEAGKVHADDTPVKVLAPGNGKTKTGRLWVYVRDDRNAGSSLPAAVWFAYSADRKGEHPQLHLAKYQGVLQADAYAGYNVLYETGRVKEAGCLAHARRKIHDEDVRRPTEMTQEALRRIAELYDIEAEIRGSPAEERLAVRKARSVQLMQSLYDWIQLQRKTLSKHAEMAKAFDYILNHWNALNEFCRDGRVEIDNNIGENALRSVAVGRKNYLFFGSDKGGESAAIIYSLLVTCKQNEVEPEDWLREVIEKLNDWPSNQVHELLPWNFSSVK	not soluble
SATAQLSHCITIHKASKETVFPSQITNEHESLKMVKKLFATSISCITYLRGLFPESSYGERHLDDLSLKILREDKKCPGSLHIIRWIQGCFDALEKRYLRMAVLTLYTDPMGSEKVTEMYQFKFKYTKEGATMDFDSHSSSTSFESGTNNEDIKKASVLLIRKLYILMQDLEPLPNNVVLTMKLHYYNAVTPHDYQPLGFKEGVNSHFLLFDKEPINVQVGFVSTGFHSMKVKVMTEATKVIDLENNLFRENSTTEIAHQGLDCDEEEECNDHIQRMNFVCSQQSSECSRKKRKVSEPVKVFIPNRK	soluble
MSLAKKNYILVIDDDVMMSQTISDFIHGKGYHVIVCNNLEEAFSELSQYKIDLILINFWQPDGTALILLEHLNEEKITTPVIVISNTKEHQSVLECFRMGVLDFVVKPINLEIFWYKVECLLTRVKLQHEVKLQRVELEKMLYEKAREEKMARNLFEHLVNIDNTQFEFVRTFCQASANFSGDIILKGLAPNGNFFLMPEFNSEVRHSTIKQLIGEEGHHHHHH	soluble
GAMSYSLYGTTLEQQYNKPLSDLLIRCINCQKPLSPEEKQRHLDKKQRFHNIRGRWTGRCMSCSRSSRTRRETQL	soluble
MGSDKIHHHHHHMTKLPATSDIYISFFMFTTNLQPDNLDYRRIVVAHIKKLQRFGYSGFEFPIAPGLPENYAQDLENYTNLRHYLDSEGLENVKISTNVGATRTFDPSSNYPEQRQEALEYLKSRVDITAALGGEIMMGPIVIPYGVFPTTDFNEPIWSDELQEHLKVRYANAQPILDKLGEYAEIKKVKLAIEPITHWETPGPNKLSQLIEFLKGVKSKQVGVVIDSAHEILDGEGPEIFKTQVEYLAQQGRLHYVQVSPPDRGALHTSWLPWKSFLTPIVKVYDGPIAVEIFNAIPAFTNSLRLTRRKFWIPDEDPPNQYPNAYDIADEAIKVTRKELKKIGSK	not soluble
MGSDKIHHHHHHMEEVINGILIREVETKNIMTKSSLPVGGYSVNPYVGCTHACKYCYASFMKRFTGHKEEWGTFLDVKHWPEIKNPKKYAGQRVVIGSVTDGYNPQEEQFGNTRKLLEQLIGSDADILICTKSDLVVRDIDLLKKLGRVTVSWSINTLDENFKNDMDSASSIERRISAMKQVYESGIRTVCFVSPVFPGITDFEAIFERVKDQCDLFWLENLNLRGGFKKTIMDYITGQYPDLVPLYDEIYNKHNRSYFEALEVKAEKMAKKYDCAFVDNEMPYGRVPQGHPVIVDYFYHEEIRGTENTGKRNR	not soluble
MGASSSSSVSEKSIHQFTVKDSSGKEVDLSVYQGKVLLVVNVASKCGFTESNYTQLTELYRKYKDQGFVVLAFPCNQFLSQEPGTSEEAHQFACTRFKAEYPVFQKVRVNGQNAAPVYKFLKSKKPSFLGSRIKWNFTKFLVGKDGQVIDRYGTTVSPLSIQKDIEKALAQEL	soluble
IVGGYTCEENSLPYQVSLNSGSHFCGGSLISEQWVVSAAHCYKTRIQVRLGEHNIKVLEGNEQFINAAKIIRHPKYNRDTLDNDIMLIKLSSPAVINARVSTISLPTAPPAAGTECLISGWGNTLSFGADYPDELKCLDAPVLTQAECKASYPGKITNSMFCVGFLEGGKDSCQRDAGGPVVCNGQLQGVVSWGHGCAWKNRPGVYTKVYNYVDWIKDTIAANS	soluble
MADMKNKYDVKRIIPDELSESLDIFLKNYSETGLSDYNTYLFYGFILKSYKLPRENRYSIKLLVKELQNRGLKVTLIINIYYHALNCLALNDGLKIYGEDFLI	not soluble
MGSGKERDTFVYLAKLSEQAERYEEMVESMKSVAKLNVDLTVEERNLLSVGYKNVIGSRRASWRIFSSIEQKEAVKGNDVNVKRIKEYMEKVELELSNICIDIMSVLDEHLIPSASEGESTVFFNKMKGDYYRYLAEFKSGNERKEAADQSLKAYEIATTAAEAKLPPTHPIRLGLALNFSVFYYEIMNAPERACHLAKQAFDEAISELDTLNEESYKDSTLIMQLLRDNLTLWTSDISEEGGDDAHKTNGSAKPGAGGDDAE	soluble
CTEPLGLKDNTIPNKQITASSYYKTWGLSAFSWFPYYARLDNQGKFNAWTAQTNSASEWLQIDLGSQKRVTGIITQGARDFGHIQYVAAYRVAYGDDGVTWTEYKDPGASESKIFPGNMDNNSHKKNIFETPFQARFVRIQPVAWHNRITLRVELLGC	soluble
MCRALQEQREASAAIAREILGDIKLNVTDGEFAVSIAQQEALESYVDLLEKQEQELIAELHRTVLRLSAKIAATRHLRNLAIREAGKQQGMRMAEDTTERGERQHEEA	not soluble
MSKLAELQAETREIIEDLLNDGSEPNALYIIEHHIAHHDFDLLEKIAVDAFKAGYEVSEAEEFKDDDGKPIFCFDIISEVELKAEIIDAQQKEILPLLEKHNGIYDGWGTYFEDPNADDDEYGDDGEFLDDEDEYGDDGEFFDDEDEEEPRVH	not soluble
MGSDKIHHHHHHCGVEEKTEVQLLKEMPKPKAMTIDPSLSQKEATEMVHAAQRFYAFWDTGKEELIPQTVTENFFDHTLPKGRPQGTEGLKFAAQNFRKIVPNIHCEIEDLLVVGDKVTARLSFTGTHNDKKIDFFAIDILHVKDGKITEDWHLEDNLTLKQQLGLIAEE	not soluble
MITSTTTDYKNFFKHSAHPANAEQYFRELLDKRERRYEDLCRNIISDMNQYGLSVVDDFLGMETGLKILNEVRSMYNAGAFQDGQVVTNQTPDAPAVRGDKIRGDKIKWVGGNEPGCSNVWYLTNQIDSVVYRVNTMKDNGILGNYHIRERTRAMVACYPGSGTHYVMHVDNPQKDGRVITAIYYLNINWDARESGGILRIRPTPGTTVADIEPKFDRLIFFWSDIRNPHEVQPAHRTRYAITVWYFDAKEREEALIRAKLENSKTNNLAAQAQAQQAEPDSTTTPPAAPASSASSLPVSMSTGTGALNANVSSNSCATSSEICT	not soluble
MSSKSTKRAKIEDPKDNVFMVEKVLDKRTGKAGRDEFLIQWQGFPESDSSWEPRENLQCVEMLDEFEREFSKREKPIRKRHSQKPEPSEDQADPEEDKDEKKETNQNDKFSLEGKQLKCIVGLTKGPGELHFLCKFSDDTARLLPAKEVNSRYPSQVIRYYESKLTIQDPKADEL	not soluble
MGSDKIHHHHHHMSDVYDYLKESLPGDHSRQATAEAVLQARVAKGFAPAKVLDFGCGDGRSIDLFRRMLPQVDWTGVDIEASPEVASRRRQDGRFVTYDGYELPFPDRSFPLVYSHQVLEHVRKPELALREIARVLEPDGLFIGQTSQFEPYHSYSLWNFTVYGFKRIVEDAGMQLAELRPGIDGFTLMRRTYEGRPPEMSKYFSQESPINEEIEKAAGDKRTQVRNFRKLLFCGQFIFVVQLR	not soluble
MGSDKIHHHHHHMINSHQTQPLLRLENIEKSYGSHRILNKVSFCLYPGEITALIGDNGAGKSTLVQIISGYIQADKGNIYWQEQPLCYSNQYNAPFEMRRLGIQIVHQQLALIDELSIWRNFFLGNEINKKIGPFKFLNIRLMQHIASQSLQSFGLVCLPNIDLPVKKLSGGERQMLVVCRAKYFNAKLLILDEPTSALSPAQADKVLQIIKNIAQAGIAIVFITHNPAHIQNTAHKVIKLSCGTIEIMELTNTLIKG	not soluble
MKEPLDLSKYSVRTDLAVEAHQMLQERQEEQQQGIQGVIVKEREEEGIIITKVTIDEVASESMGKKPGNYLTLEVQGIRQQDTELQQKVERIFAKEFSYFLEEVGVTKEASCLIVGLGNWNVTPDALGPIVVENVLVTRHLFQLQPESVEEGFRPVSAIRPGVMGITGIETSDVIYGIIEKTKPDFVIAIDALAARSIERVNSTIQISDTGIHPGSGVGNKRKELSKETLGIPVIAIGVPTVVDAVSITSDTIDFILKHFGREMKEGNKPSRSLLPAGFTFGEKKKLTEEDMPDEKSRNMFLGAVGTLEDEEKRKLIYEVLSPLGHNLMVTPKEVDAFIEDMANVIASGLNAALHHQIDQDNTGAYTH	not soluble
MGHHHHHHSHMATSATSPHAPGFPAEGRCGYYVEKKKRFCRMVVAAGKRFCGEHAGAAEEEDARKRILCPLDPKHTVYEDQLAKHLKKCNSREKPKPDFYIQDINAGLRDETEIPEQLVPISSLSEEQLEKLIKKLRKASEGLNSTLKDHIMSHPALHDALNDPKNGDSATKHLKQQVCLGYSNY	not soluble
MGSDKIHHHHHHMTVCVAVKVQDCIVFAADSTTSLQAVGANGEHVTMNTYDHANKLFNLRKGCPVAAMTAGIGNFGGSSISTVSKDFRSLIDRRAEGYALNWENYTIEEIVGLARKYFFEERFSSLSEKPQGSFQYWVGGYSSGEQMGEVWQFQIHNGECLEPQCSISRNVASGLAWGGAPEAINRLILGYGQRIGDALVEGGLDASLVPQAIDGIARYTQCSLVHAAMPTGDAIDLAKFLAETTKQFVRFMPGSNSVGGDLDIATITKHENFKWIARKHFYNTRINPLETNHA	not soluble
MGSDKIHHHHHHMDGVKCQFVNTNGITLHVAAAGREDGPLIVLLHGFPEFWYGWKNQIKPLVDAGYRVIAPDQRGYNLSDKPEGIDSYRIDTLRDDIIGLITQFTDEKAIVIGHDWGGAVAWHLASTRPEYLEKLIAINIPHPHVMKTVTPLYPPQWLKSSYIAYFQLPDIPEASLRENDYDTLDKAIGLSDRPALFTSEDVSRYKEAWKQPGALTAMLNWYRALRKGSLAEKPSYETVPYRMIWGMEDRFLSRKLAKETERHCPNGHLIFVDEASHWINHEKPAIVNQLILEYLKNQ	not soluble
MYTKNFSNSRMEVKGNNGCSAPIIRKPFKHIVLTVPSSDLDNFNTVFYVQPQYINQALHLANAFQGAIDPLNLNFNFEKALQIANGIPNSAIVKTLNQSVIQQTVEISVMVEQLKKIIQEVLGLVINSTSFWNSVEATIKGTFTNLDTQIDEAWIFWHSLSAHNTSYYYNILFSIQNEDTGAVMAVLPLAFEVSVDVEKQKVLFFTIKDSARYEVKMKALTLVQALHSSNAPIVDIFNVNNYNLYHSNHKIIQNLNLSN	soluble
MDKQVRNTTEIVRLAKQKSKKTREKVDKAISKFSIEGKVINFNSIAKEANVSKSWLYKEHDIRQRIESLRERQITANVVSKPKKSSRSEEILIKTLKRRVMELEKENKKLQNQIQKLYGDLYNKELEHHHHHH	soluble
